According to paper PMC12193154, “Effect of Mutations in the C-Terminal 22–24 Domains of Filamin C Associated with Cardio- and Myopathies on Its Interaction with Small Heat Shock Protein HspB7” (International Journal of Molecular Sciences, 2025):

What was measured:
[1] = biological target: the molecule itself; assay: cross-linking; isolated proteins or equimolar mixture, 30 min at 30 °C in 25 mM HEPES/NaOH pH 7.4, 100 mM NaCl, 2 mM DTT, then 0.0125% glutaraldehyde 30 min at 30 °C; SDS gel and anti-HspB7 immunoblot
[2] = biological target: T1, small heat shock protein HspB7 (full-size) (UniProt Q9UBY9 1-170); assay: native gel or EMSA; fixed HspB7 (25 or 30 µM) or AcdB7 (35 µM) in 20 mM Tris-acetate pH 7.6, 100 mM NaCl titrated with 0-120 µM FLNC fragment, 30 min at 30 °C; native 12.5% polyacrylamide gel, Tris-glycine pH 8.6; band intensities, semi quantitative, apparent affinity; details: both partners purified
T1 construct: small heat shock protein HspB7, full-size; also called full-size HspB7; full-length HspB7; source: recombinant, expressed and purified as described earlier [25,34]
T1 sequence (Q9UBY9 whole entry, the tested form may be a part): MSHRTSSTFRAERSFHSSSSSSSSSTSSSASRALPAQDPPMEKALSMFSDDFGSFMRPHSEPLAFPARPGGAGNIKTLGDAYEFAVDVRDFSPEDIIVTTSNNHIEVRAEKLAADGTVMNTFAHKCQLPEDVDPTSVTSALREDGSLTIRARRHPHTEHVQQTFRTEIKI

[3] = biological target: T2, α-crystallin domain of HspB7 (AcdB7) containing residues 77-155 (UniProt Q9UBY9 77-155); assay: as above; details: both partners purified
T2 construct: small heat shock protein HspB7, α-crystallin domain, residues 77-155; source: recombinant, expressed and purified as described earlier [25,34]
T2 sequence (Q9UBY9 77-155): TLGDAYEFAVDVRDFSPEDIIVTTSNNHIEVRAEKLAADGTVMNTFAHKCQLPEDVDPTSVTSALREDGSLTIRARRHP

[4] = biological target: the molecule itself; assay: SEC; isolated FLNC fragments, 0.1 mg in 100 µL, Superdex 200 10/300, 0.5 mL/min, 50 mM Na-phosphate pH 7.4, 150 mM NaCl, 0.1 mM EDTA, 0.1 mM PMSF, 2 mM DTT, room temperature; apparent molecular weights from column calibration

EC50 [2] [µM]	stoichiometry N [2] [HspB7/FLNC]	EC50 [3] [µM]	stoichiometry N [3]	Binder	stoichiometry N [1]	stoichiometry N [4]
				ΔPGL mutant (p.P2643_L2645del) of the FLNC fragment containing immunoglobulin-like domains 22-24 (domain or fragment, human, UniProt Q14315 2403-2725, looked up, human filamin C (FLNC), Uniprot Q14315, residues 2403-2725, with deletion of the tripeptide 2643-PGL-2645 (mutation associated with restrictive cardiomyopathy); also called ΔPGL FLNC; c.7927_7935del; source: recombinant, expressed and purified as described earlier [23]; (ion-exchange and size-exclusion chromatography)) SLSDDARRLTVTSLQETGLKVNQPASFAVQLNGARGVIDARVHTPSGAVEECYVSELDSDKHTIRFIPHENGVHSIDVKFNGAHIPGSPFKIRVGEQSQAGDPGLVSAYGPGLEGGTTGVSSEFIVNTLNAGSGALSVTIDGPSKVQLDCRECPEGHVVTYTPMAPGNYLIAIKYGGPQHIVGSPFKAKVTGPRLSGGHSLHETSTVLVETVTKSSSSRGSSYSSIPKFSSDASKVVTRGSQAFVGQKNSFTVDCSKAGTNMMMVGVHGPKTPCEEVYVKHMGNRVYNVTYTVKEKGDYILIVKWGDESVPGSPFKVKVP	2	
~10	2	~20	1	wild-type (WT) C-terminal fragment of human filamin C (FLNC) containing immunoglobulin-like domains 22-24 (domain or fragment, UniProt Q14315 2403-2725, looked up, human filamin C (FLNC), Uniprot Q14315, immunoglobulin-like domains 22-24, amino acid residues 2403-2725; Dimer by SEC and cross-linking; also called WT FLNC; WT FLNC fragment; source: recombinant, expressed and purified as described earlier [23]; (ion-exchange and size-exclusion chromatography)) SLSDDARRLTVTSLQETGLKVNQPASFAVQLNGARGVIDARVHTPSGAVEECYVSELDSDKHTIRFIPHENGVHSIDVKFNGAHIPGSPFKIRVGEQSQAGDPGLVSAYGPGLEGGTTGVSSEFIVNTLNAGSGALSVTIDGPSKVQLDCRECPEGHVVTYTPMAPGNYLIAIKYGGPQHIVGSPFKAKVTGPRLSGGHSLHETSTVLVETVTKSSSSRGSSYSSIPKFSSDASKVVTRGPGLSQAFVGQKNSFTVDCSKAGTNMMMVGVHGPKTPCEEVYVKHMGNRVYNVTYTVKEKGDYILIVKWGDESVPGSPFKVKVP		2
~10	2	~20	1	EN/D mutant (p.Glu2472_Asn2473delinsAsp) of the FLNC fragment containing immunoglobulin-like domains 22-24 (domain or fragment, human, UniProt Q14315 2403-2725, looked up, human filamin C (FLNC), Uniprot Q14315, residues 2403-2725, with Glu2472 and Asn2473 replaced by Asp (mutation associated with restrictive cardiomyopathy); also called c.7416_7418delGAA; source: recombinant, expressed and purified as described earlier [23]; (ion-exchange and size-exclusion chromatography)) SLSDDARRLTVTSLQETGLKVNQPASFAVQLNGARGVIDARVHTPSGAVEECYVSELDSDKHTIRFIPHDGVHSIDVKFNGAHIPGSPFKIRVGEQSQAGDPGLVSAYGPGLEGGTTGVSSEFIVNTLNAGSGALSVTIDGPSKVQLDCRECPEGHVVTYTPMAPGNYLIAIKYGGPQHIVGSPFKAKVTGPRLSGGHSLHETSTVLVETVTKSSSSRGSSYSSIPKFSSDASKVVTRGPGLSQAFVGQKNSFTVDCSKAGTNMMMVGVHGPKTPCEEVYVKHMGNRVYNVTYTVKEKGDYILIVKWGDESVPGSPFKVKVP		2
